Measured values: publication PMC4476739

Assays:
[1] = target: DS-Cav1, 505-… (design without foldon) (respiratory syncytial virus) (UniProt P03420); assay: ELISA; D25 ELISA on 293T transient expression culture supernatants, 96-well microtiter plate format
[2] = target: DS-Cav1 1-C, foldon removed (respiratory syncytial virus) (UniProt P03420); assay: BLI; fortéBio Octet Red384; RSV F variant captured on motavizumab IgG loaded on anti-human Fc probes; Fab in solution 0.007 to 0.5 μM; 30°C; PBS + 1% BSA; 1:1 fit
[3] = target: RSV F DS-Cav1 with C-terminal T4 fibritin foldon (respiratory syncytial virus | bacteriophage T4) (UniProt P03420); assay: SEC; S200 size-exclusion chromatography of purified RSV F variants, before or after removal of the foldon with thrombin; PBS
[4] = target: RSV F DS-Cav1 with a thrombin cleavage site between RSV F and the foldon, before cleavage (respiratory syncytial virus | bacteriophage T4) (UniProt P03420); assay: as above

D25 antibody as used in the ELISA
D25 ELISA binding titer (OD) [1]: > 2 OD

D25 antigen binding fragment (Fab)
Kd [2]: 0.32 nM

RSV F DS-Cav1 with C-terminal T4 fibritin foldon (from UniProt P03420 26-109; P03420 137-511) (domain or fragment)
stoichiometry N [3]: 3

RSV F DS-Cav1 with a thrombin cleavage site between RSV F and the foldon, before cleavage (from UniProt P03420 26-109; P03420 137-511) (domain or fragment)
stoichiometry N [4]: 3
